Measurements as given in the Immune Epitope Database (IEDB).

Columns and labels:
HLA-B*15:01 [1] = assay: IEDB peptide-MHC binding, purified MHC/direct/fluorescence; filed as Kd, often an IC50 or EC50 that approximates it; ≥ and ≤ were set here for values at or beyond the usual limits of such assays
HLA-A*01:01 [2] = assay: as above
HLA-A*24:02 = assay: as above
HLA-A*03:01 = assay: as above
HLA-A*11:01 [3] = assay: as above
HLA-A*69:01 = assay: as above
HLA-B*58:01 = assay: as above
HLA-A*02:01 = assay: as above
HLA-B*07:02 = assay: as above
HLA-B*40:01 = assay: as above
HLA-B*27:05 [4] = assay: as above
HLA-B*44:02 = assay: as above
HLA-B*27:05 [5] = assay: IEDB peptide-MHC binding, purified MHC/competitive/fluorescence; filed as Kd, often an IC50 or EC50 that approximates it; ≥ and ≤ were set here for values at or beyond the usual limits of such assays; conditions: source organism: Vibrio vulnificus YJ016
HLA-B*18:01 [6] = assay: IEDB peptide-MHC binding, purified MHC/direct/fluorescence; filed as Kd, often an IC50 or EC50 that approximates it; ≥ and ≤ were set here for values at or beyond the usual limits of such assays
HLA-B*38:01 = assay: as above; conditions: source organism: Mycobacterium tuberculosis str. Haarlem
HLA-A*02:06 [7] = assay: as above
HLA-A*31:01 = assay: as above
HLA-B*15:17 [8] = assay: as above; conditions: source organism: Mycobacterium tuberculosis
HLA-B*08:02 = assay: as above
HLA-B*51:01 = assay: as above; conditions: source organism: Mycobacterium tuberculosis
HLA-B*46:01 = assay: as above
HLA-B*57:01 [9] = assay: as above; conditions: source organism: Mycobacterium tuberculosis
HLA-A*30:01 [10] = assay: as above; conditions: source organism: Mycobacterium tuberculosis str. Haarlem
HLA-B*48:01 = assay: as above; conditions: source organism: Mycobacterium tuberculosis
HLA-B*39:01 = assay: as above; conditions: source organism: Mycobacterium tuberculosis str. Haarlem
HLA-B*15:01 [11] = assay: IEDB peptide-MHC binding, purified MHC/competitive/fluorescence; filed as Kd, often an IC50 or EC50 that approximates it; ≥ and ≤ were set here for values at or beyond the usual limits of such assays; conditions: source organism: Human immunodeficiency virus 1
HLA-A*01:01 [12] = assay: as above; conditions: source organism: Human immunodeficiency virus 1
HLA-B*18:01 [13] = assay: as above; conditions: source organism: Human immunodeficiency virus 1
HLA-A*02:03 [14] = assay: as above; conditions: source organism: Human immunodeficiency virus 1
HLA-A*02:06 [15] = assay: as above; conditions: source organism: Human immunodeficiency virus 1
HLA-B*15:17 [16] = assay: as above; conditions: source organism: Human immunodeficiency virus 1
HLA-A*11:01 [17] = assay: as above; conditions: source organism: Human immunodeficiency virus 1
HLA-B*57:01 [18] = assay: as above; conditions: source organism: Human immunodeficiency virus 1
HLA-A*30:01 [19] = assay: as above; conditions: source organism: Human immunodeficiency virus 1
HLA-A*26:02 = assay: as above; conditions: source organism: Human immunodeficiency virus 1
HLA-B*15:09 = assay: IEDB peptide-MHC binding, purified MHC/direct/fluorescence; filed as Kd, often an IC50 or EC50 that approximates it; ≥ and ≤ were set here for values at or beyond the usual limits of such assays; conditions: source organism: Vibrio cholerae V52
HLA-B*08:01 = assay: as above
HLA-A*02:11 = assay: as above; conditions: source organism: Influenza A virus(A/swine/Shandong/fNY/2003(H9N2))
HLA-A*02:03 [20] = assay: as above; conditions: source organism: Influenza A virus(A/swine/Shandong/fNY/2003(H9N2))
HLA-A*02:16 = assay: as above; conditions: source organism: Influenza A virus(A/swine/Shandong/fNY/2003(H9N2))
HLA-A*02:19 = assay: as above; conditions: source organism: Influenza A virus(A/swine/Shandong/fNY/2003(H9N2))
HLA-A*02:12 = assay: as above; conditions: source organism: Influenza A virus(A/swine/Shandong/fNY/2003(H9N2))
[21] = source organism: Vibrio parahaemolyticus
[22] = source organism: Mycobacterium tuberculosis
[23] = source organism: Mycobacterium tuberculosis str. Haarlem
[24] = source organism: Vibrio cholerae
[25] = source organism: Vibrio cholerae V52
[26] = source organism: Influenza A virus (A/Puerto Rico/8/34/Mount Sinai(H1N1))
[27] = source organism: Influenza A virus (A/Viet Nam/HN/2004(H5N1))

With ISDPAFKVF the Kd (HLA-B*15:01 [1]; [21]) was 0.63 µM, the Kd (HLA-A*01:01 [2]; [21]) was at least 20 µM and the Kd (HLA-A*24:02; [21]) was at least 20 µM. The Kd (HLA-A*03:01; [21]) was at least 20 µM, the Kd (HLA-A*11:01 [3]; [21]) was at least 20 µM and the Kd (HLA-A*69:01; [21]) was at least 20 µM. For the same sequence, the Kd (HLA-B*58:01; [21]) was 0.0175 µM, the Kd (HLA-A*02:01; [21]) was at least 20 µM and the Kd (HLA-B*07:02; [21]) was at least 20 µM. It also gave a Kd (HLA-B*40:01; [21]) of at least 20 µM, a Kd (HLA-B*27:05 [4]; [21]) of at least 20 µM and a Kd (HLA-B*44:02; [21]) of at least 20 µM.
Sequence QQYTDEAPY has a Kd (HLA-B*27:05 [5]) of at least 20 µM.
Sequence RGRIGRTYL has a Kd (HLA-B*15:01 [1]; [22]) of at least 20 µM, a Kd (HLA-A*01:01 [2]; [22]) of at least 20 µM and a Kd (HLA-B*18:01 [6]; [22]) of at least 20 µM. The Kd (HLA-B*38:01) was at least 20 µM, the Kd (HLA-A*02:06 [7]; [23]) was at least 20 µM and the Kd (HLA-A*31:01; [22]) was at least 20 µM. It also gave a Kd (HLA-A*03:01; [22]) of at least 20 µM, a Kd (HLA-B*15:17 [8]) of 0.0687 µM and a Kd (HLA-A*11:01 [3]; [22]) of at least 20 µM. For the same sequence, the Kd (HLA-B*08:02; [23]) was at least 20 µM, the Kd (HLA-A*69:01; [22]) was at least 20 µM and the Kd (HLA-B*51:01) was at least 20 µM. The Kd (HLA-B*58:01; [22]) was at least 20 µM, the Kd (HLA-B*46:01; [22]) was at least 20 µM and the Kd (HLA-B*57:01 [9]) was at least 20 µM. For the same sequence, the Kd (HLA-A*02:01; [22]) was at least 20 µM, the Kd (HLA-A*30:01 [10]) was 0.023 µM and the Kd (HLA-B*07:02; [22]) was 0.003 µM. It also gave a Kd (HLA-B*48:01) of 3.04 µM, a Kd (HLA-B*40:01; [22]) of at least 20 µM and a Kd (HLA-B*39:01) of at least 20 µM.
RSLFNTIATLY showed a Kd (HLA-B*15:01 [11]) of 0.711 µM, a Kd (HLA-A*01:01 [12]) of 1.25 µM and a Kd (HLA-B*18:01 [13]) of 0.0886 µM. It also gave a Kd (HLA-A*02:03 [14]) of 0.728 µM, a Kd (HLA-A*02:06 [15]) of 0.203 µM and a Kd (HLA-B*15:17 [16]) of 0.003 µM. It also gave a Kd (HLA-A*11:01 [17]) of 0.255 µM, a Kd (HLA-B*57:01 [18]) of 0.146 µM and a Kd (HLA-A*30:01 [19]) of at least 20 µM. For the same sequence, the Kd (HLA-A*26:02) was 2.15 µM.
RVHGATVFK showed a Kd (HLA-B*15:01 [1]; [24]) of at least 20 µM, a Kd (HLA-A*01:01 [2]; [24]) of at least 20 µM and a Kd (HLA-B*18:01 [6]; [24]) of at least 20 µM. It also gave a Kd (HLA-B*15:09) of at least 20 µM, a Kd (HLA-A*31:01; [24]) of 0.0595 µM and a Kd (HLA-A*24:02; [24]) of at least 20 µM. For the same sequence, the Kd (HLA-A*03:01; [24]) was 0.249 µM, the Kd (HLA-A*11:01 [3]; [24]) was 0.0472 µM and the Kd (HLA-B*08:02; [25]) was at least 20 µM. For the same sequence, the Kd (HLA-A*69:01; [24]) was at least 20 µM, the Kd (HLA-B*58:01; [24]) was at least 20 µM and the Kd (HLA-B*08:01; [25]) was at least 20 µM. For the same sequence, the Kd (HLA-A*02:01; [24]) was at least 20 µM, the Kd (HLA-B*07:02; [24]) was at least 20 µM and the Kd (HLA-B*40:01; [24]) was at least 20 µM. For the same sequence, the Kd (HLA-B*27:05 [4]; [24]) was at least 20 µM and the Kd (HLA-B*44:02; [24]) was at least 20 µM.
VSPLAVTWW gave a Kd (HLA-A*02:11) of 0.032 µM, a Kd (HLA-B*15:01 [1]; [26]) of 2.2 µM and a Kd (HLA-A*01:01 [2]; [27]) of at least 20 µM. It also gave a Kd (HLA-A*02:03 [20]) of 0.029 µM, a Kd (HLA-A*02:16) of 0.131 µM and a Kd (HLA-A*02:06 [7]; source organism: Influenza A virus(A/swine/Shandong/fNY/2003(H9N2))) of at least 20 µM. The Kd (HLA-A*24:02; [27]) was at least 20 µM, the Kd (HLA-A*03:01; [26]) was 0.173 µM and the Kd (HLA-A*69:01; [27]) was at least 20 µM. For the same sequence, the Kd (HLA-B*46:01; [27]) was at least 20 µM, the Kd (HLA-B*08:01; [27]) was at least 20 µM and the Kd (HLA-A*02:01; [26]) was 1.08 µM. For the same sequence, the Kd (HLA-B*07:02; [27]) was at least 20 µM, the Kd (HLA-A*02:19) was at least 20 µM and the Kd (HLA-B*40:01; [27]) was at least 20 µM. For the same sequence, the Kd (HLA-B*27:05 [4]; [26]) was 0.161 µM, the Kd (HLA-B*44:02; [27]) was at least 20 µM and the Kd (HLA-A*02:12) was 3.54 µM.
